Where a chain is given by its changes, count along the chain named.
B1: EO_Q16: affinity matured clone of OEA2-5, osimertinib-EGFR on HLA-A*02 (antibody, V domains shown)
VH: EVQLVESGGGLVQPGGSLRLSCAASGFTISSSYIHWVRQAPGKGLEWVAYISPSYGSTSYADSVKGRFTISADTSKNTAYLQMNSLRAEDTAVYYCAREYVTMSIDYWGQGTLVTVSS
VL: DIQMTQSPSSLSASVGDRVTITCRASQSVSSAVAWYQQKPGKAPKLLIYSASSLYSGVPSRFSGSRSGTDFTLTISSLQPEDFATYYCQQYSDWPITFGQGTKVEIKRTV
B2: EO_Q17: affinity matured clone of OEA2-5, osimertinib-EGFR on HLA-A*02 (antibody, V domains shown)
VH: B1 VH with Y100L, T102E, S104T, I105P
VL: B1 VL with D93S

Molecular target: osimertinib-EGFR/HLA-A*02 (Homo sapiens, UniProt P00533)
Assay: Yeast-display binding of affinity matured clones
Settings: for binding to EGFR/HLA-A*02 (no drug-conjugation) / binding to osimertinib-EGFR/HLA-A*02: binding titration, FIG. 39; for inhibition of antigen binding by free drug: osimertinib-EGFR/HLA-A*02 10 nM, free osimertinib 1 μM, FIG. 40
Description: FIG. 40. Binding of EO_Q16 and EO_Q17 to osimertinib-EGFR/HLA-A*02 (10 nM) in the absence and presence of free osimertinib (1 μM), showing that antigen binding of these antibodies is not inhibited by the presence of free drug.
The binding partners described above in this Example show higher binding signals to osimertinib-EGFR/HLA-A*02, as tested in the yeast display format and as shown in FIGS. 39 and 40.

Row | Molecule | binding to EGFR/HLA-A*02 (no drug-conjugation) | binding to osimertinib-EGFR/HLA-A*02 | inhibition of antigen binding by free drug
1 | B1 | not to the equivalent antigen without drug conjugation | high affinity | not inhibited
2 | B2 | not to the equivalent antigen without drug conjugation | high affinity | not inhibited

— patent US20250353912A1, “COMPOSITIONS AND METHODS COMPRISING ANTIBODIES THAT BIND TO COVALENT PEPTIDE CONJUGATES” (New York University, priority 2022, published 2025)
